From patent publication EP1443117B1 (UNIVERSITY OF VIRGINIA PATENT FOUNDATION, dated 2010)

Biological target: T1, tssk 2 fused to the GAL4 DNA binding domain (DNA-BD) (human, UniProt P04386 1-147 (Saccharomyces cerevisiae entry), limits assumed)
T1 construct: Yeast two-hybrid bait expressed in reporter strain AH109; also called bait gene (tssk 2); fusion protein of TSSK2 with the DNA-BD
Assay: yeast two-hybrid, growth in His-free medium (AH109 reporter strain)

binding result: no binding
B1: GAL4 activation domain alone (GAL-AD plasmid) (other, UniProt P04386 768-881, looked up)
chain: ANFNQSGNIADSSLSFTFTNSSNGPNLITTQTNSQALSQPIASSNVHDNFMNNEITASKIDDGNNSKPLSPGWTDQTAYNAFGITTGMFNTTTMDDVYNYLFDDEDTPPNPKKE
notes: also called GAL-AD alone
